Assay results taken from publication PMC7352350, “Molecular Interactions Stabilizing the Promatrix Metalloprotease-9·Serglycin Heteromer” (International Journal of Molecular Sciences, 2020).

T1: recombinant human His-tagged serglycin (human, UniProt P10124 28-158)
T1 construct: serglycin core protein, human, the tag stands instead of the signal peptide; no GAG chains; numbers count on: the mature protein (1-131); also called Ht-SG; SG core protein; source: bought: ProSpec (produced in Escherichia coli)
T1 sequence (looked up): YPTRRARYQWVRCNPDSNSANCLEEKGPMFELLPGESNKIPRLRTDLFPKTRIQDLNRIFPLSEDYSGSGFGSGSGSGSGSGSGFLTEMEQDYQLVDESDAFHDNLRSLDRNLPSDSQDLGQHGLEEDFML


Columns and labels:
[1] = biological target: T2, proMMP-9 purified from THP-1 cells (human (endogenous in THP-1), UniProt P14780 20-707); assay: peptide or protein array; 20-mer walk of the SG core protein on cellulose, two-residue shift; 8.8 ul of 11.2 ug/mL proMMP-9 in 10 mL blocking buffer, 1-4 h, room temperature; antibody against MMP-9; conditions: both partners purified
T2 construct: matrix metalloprotease-9 proenzyme, human; pre domain cleaved off, the mature proenzyme is 20-707; the preparation holds a small amount of TIMP-1; monomer and reduction-sensitive homomultimer; also called pMMP-9; promatrix metalloprotease-9; source: purified from conditioned medium of PMA-stimulated THP-1 cells (Q-Sepharose pass-through, gelatin-Sepharose)
T2 sequence (P14780 20-707): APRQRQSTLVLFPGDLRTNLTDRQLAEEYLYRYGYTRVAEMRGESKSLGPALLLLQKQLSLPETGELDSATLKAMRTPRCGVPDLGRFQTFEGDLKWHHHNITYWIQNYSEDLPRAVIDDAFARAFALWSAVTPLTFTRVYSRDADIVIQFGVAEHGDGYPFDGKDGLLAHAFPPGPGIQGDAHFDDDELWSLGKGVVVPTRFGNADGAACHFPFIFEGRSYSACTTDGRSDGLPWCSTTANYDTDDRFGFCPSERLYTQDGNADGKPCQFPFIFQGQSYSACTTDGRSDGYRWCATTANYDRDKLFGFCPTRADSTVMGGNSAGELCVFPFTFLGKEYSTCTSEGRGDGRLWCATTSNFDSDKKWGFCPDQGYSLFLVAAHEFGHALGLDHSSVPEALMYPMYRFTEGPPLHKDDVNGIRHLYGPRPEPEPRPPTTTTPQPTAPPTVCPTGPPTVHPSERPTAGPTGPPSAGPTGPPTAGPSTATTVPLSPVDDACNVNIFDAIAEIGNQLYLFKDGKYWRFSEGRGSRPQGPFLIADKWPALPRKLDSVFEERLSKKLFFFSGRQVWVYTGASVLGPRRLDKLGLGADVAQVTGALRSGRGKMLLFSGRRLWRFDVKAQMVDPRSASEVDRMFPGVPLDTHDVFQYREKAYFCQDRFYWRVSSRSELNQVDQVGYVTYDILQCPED

[2] = biological target: T1, recombinant human His-tagged serglycin; assay: peptide or protein array; 20-mer walks of the MMP-9 FnII module and HPX domain on cellulose, two-residue shift; 10 uL of 1 ng/uL Ht-SG in 10 mL blocking buffer, 1-4 h, room temperature; antibodies against SG; conditions: both partners purified

Row | Binder | binding result [1] | binding result [2]
1 | AFHDNLRSLDRNLPSDSQDL (peptide, UniProt P10124 128-147, looked up, serglycin core protein, spot 51 of the 20-mer walk with two-residue shift; numbers count on: the mature protein (1-131); source: synthetic peptide on a cellulose membrane) [SG peptide 51] | binds | –
2 | HDNLRSLDRNLPSDSQDLGQ (peptide, UniProt P10124 130-149, looked up, serglycin core protein, spot 52 of the 20-mer walk with two-residue shift; numbers count on: the mature protein (1-131); source: synthetic peptide on a cellulose membrane) [SG peptide 52] | binds | –
3 | NLRSLDRNLPSDSQDLGQHG (peptide, UniProt P10124 132-151, looked up, serglycin core protein, spot 53 of the 20-mer walk with two-residue shift; numbers count on: the mature protein (1-131); source: synthetic peptide on a cellulose membrane) [SG peptide 53] | binds | –
4 | RSLDRNLPSDSQDLGQHGLE (peptide, UniProt P10124 134-153, looked up, serglycin core protein, spot 54 of the 20-mer walk with two-residue shift; numbers count on: the mature protein (1-131); source: synthetic peptide on a cellulose membrane) [SG peptide 54] | binds | –
5 | RSDGLPWCSTTANYDTDDRF (peptide, UniProt P14780 249-268, looked up, MMP-9 FnII module (A225-D390), spot 13 of the 20-mer walk with two-residue shift; source: synthetic peptide on a cellulose membrane) [FnII peptide 13] | – | binds
6 | DGLPWCSTTANYDTDDRFGF (peptide, UniProt P14780 251-270, looked up, MMP-9 FnII module (A225-D390), spot 14 of the 20-mer walk with two-residue shift; source: synthetic peptide on a cellulose membrane) [FnII peptide 14] | – | binds
7 | LPWCSTTANYDTDDRFGFCP (peptide, UniProt P14780 253-272, looked up, MMP-9 FnII module (A225-D390), spot 15 of the 20-mer walk with two-residue shift; source: synthetic peptide on a cellulose membrane) [FnII peptide 15] | – | binds
8 | WCSTTANYDTDDRFGFCPSE (peptide, UniProt P14780 255-274, looked up, MMP-9 FnII module (A225-D390), spot 16 of the 20-mer walk with two-residue shift; source: synthetic peptide on a cellulose membrane) [FnII peptide 16] | – | binds
9 | STTANYDTDDRFGFCPSERL (peptide, UniProt P14780 257-276, looked up, MMP-9 FnII module (A225-D390), spot 17 of the 20-mer walk with two-residue shift; source: synthetic peptide on a cellulose membrane) [FnII peptide 17] | – | binds
10 | TANYDTDDRFGFCPSERLYT (peptide, UniProt P14780 259-278, looked up, MMP-9 FnII module (A225-D390), spot 18 of the 20-mer walk with two-residue shift; source: synthetic peptide on a cellulose membrane) [FnII peptide 18] | – | binds
11 | NYDTDDRFGFCPSERLYTQD (peptide, UniProt P14780 261-280, looked up, MMP-9 FnII module (A225-D390), spot 19 of the 20-mer walk with two-residue shift; source: synthetic peptide on a cellulose membrane) [FnII peptide 19] | – | binds
12 | DTDDRFGFCPSERLYTQDGN (peptide, UniProt P14780 263-282, looked up, MMP-9 FnII module (A225-D390), spot 20 of the 20-mer walk with two-residue shift; source: synthetic peptide on a cellulose membrane) [FnII peptide 20] | – | binds
13 | DDRFGFCPSERLYTQDGNAD (peptide, UniProt P14780 265-284, looked up, MMP-9 FnII module (A225-D390), spot 21 of the 20-mer walk with two-residue shift; source: synthetic peptide on a cellulose membrane) [FnII peptide 21] | – | binds
14 | RFGFCPSERLYTQDGNADGK (peptide, UniProt P14780 267-286, looked up, MMP-9 FnII module (A225-D390), spot 22 of the 20-mer walk with two-residue shift; source: synthetic peptide on a cellulose membrane) [FnII peptide 22] | – | binds
15 | IFQGQSYSACTTDGRSDGYR (peptide, UniProt P14780 293-312, looked up, MMP-9 FnII module (A225-D390), spot 35 of the 20-mer walk with two-residue shift; source: synthetic peptide on a cellulose membrane) [FnII peptide 35] | – | binds
16 | FTFLGKEYSTCTSEGRGDGR (peptide, UniProt P14780 351-370, looked up, MMP-9 FnII module (A225-D390), spot 64 of the 20-mer walk with two-residue shift; source: synthetic peptide on a cellulose membrane) [FnII peptide 64] | – | binds
17 | FLGKEYSTCTSEGRGDGRLW (peptide, UniProt P14780 353-372, looked up, MMP-9 FnII module (A225-D390), spot 65 of the 20-mer walk with two-residue shift; source: synthetic peptide on a cellulose membrane) [FnII peptide 65] | – | binds
18 | YWRFSEGRGSRPQGPFLIAD (peptide, UniProt P14780 539-558, looked up, MMP-9 HPX domain (F521-D707), spot 10 of the 20-mer walk with two-residue shift; source: synthetic peptide on a cellulose membrane) [HPX peptide 10] | – | binds
19 | RFSEGRGSRPQGPFLIADKW (peptide, UniProt P14780 541-560, looked up, MMP-9 HPX domain (F521-D707), spot 11 of the 20-mer walk with two-residue shift; source: synthetic peptide on a cellulose membrane) [HPX peptide 11] | – | binds
20 | SEGRGSRPQGPFLIADKWPA (peptide, UniProt P14780 543-562, looked up, MMP-9 HPX domain (F521-D707), spot 12 of the 20-mer walk with two-residue shift; source: synthetic peptide on a cellulose membrane) [HPX peptide 12] | – | binds
21 | LIADKWPALPRKLDSVFEER (peptide, UniProt P14780 555-574, looked up, MMP-9 HPX domain (F521-D707), spot 18 of the 20-mer walk with two-residue shift; source: synthetic peptide on a cellulose membrane) [HPX peptide 18] | – | binds
22 | ADKWPALPRKLDSVFEERLS (peptide, UniProt P14780 557-576, looked up, MMP-9 HPX domain (F521-D707), spot 19 of the 20-mer walk with two-residue shift; source: synthetic peptide on a cellulose membrane) [HPX peptide 19] | – | binds
23 | ASVLGPRRLDKLGLGADVAQ (peptide, UniProt P14780 593-612, looked up, MMP-9 HPX domain (F521-D707), spot 37 of the 20-mer walk with two-residue shift; source: synthetic peptide on a cellulose membrane) [HPX peptide 37] | – | binds
24 | VLGPRRLDKLGLGADVAQVT (peptide, UniProt P14780 595-614, looked up, MMP-9 HPX domain (F521-D707), spot 38 of the 20-mer walk with two-residue shift; source: synthetic peptide on a cellulose membrane) [HPX peptide 38] | – | binds
